This is an account of results in paper doi:10.1101/2024.04.06.588386.

In assay [1] the target is HPeV3-2A (2A^H/NC protein of human parechovirus 3) (Human parechovirus 3 (HPeV3)). The assay can be described thus: crystal structure.
Assay [2] shares this target. Nature of the assay: SEC-MALS. For orientation: Size exclusion chromatography separates by hydrodynamic size, large species first.
Assay [3] shares this target. Nature of the assay: SEC-SAXS.
Assay [4] concerns the target LV1-2A2 (2A2 protein of Ljungan virus 1, isolate 87-012) (Ljungan virus 1 (isolate 87-012)). Nature of the assay: crystal structure.
The target in assay [5] is LV4-2A2 (full-length 2A2 protein of Ljungan virus 4, strain 64-7855) (Ljungan virus 4 (strain 64-7855)). Nature of the assay: SEC-MALS.
For assay [6] the target is unchanged. Nature of the assay: SEC-SAXS.
The target in assay [7] is LV4-2A2^1-122 (C-terminally truncated 2A2 protein of Ljungan virus 4) (Ljungan virus 4 (strain 64-7855)). The assay can be described thus: crystal structure.
The target is the same in assay [8]. Nature of the assay: SEC-MALS.
For assay [9], the target named is SEBV1-2A2 (2A2 protein of Sebokele virus 1) (Sebokele virus 1 (SEBV1)). The assay can be described thus: crystal structure.
Assay [10] shares this target. The assay can be described thus: SEC-MALS.
Assay [11] shares this target. The assay can be described thus: SEC-SAXS.

The term stoichiometry N denotes a count of units in the complex or per binding partner. In the case of “HPeV3-2A (2A^H/NC protein of human parechovirus 3) (natural protein)”, the stoichiometry N in [1] is 4; in assay [2], 2; in assay [3], 2.
In the case of “LV1-2A2 (2A2 protein of Ljungan virus 1, isolate 87-012) (natural protein)”, the stoichiometry N in assay [4] was 2.
Consider “LV4-2A2 (full-length 2A2 protein of Ljungan virus 4, strain 64-7855) (natural protein)”, for which the stoichiometry N in assay [5] and in assay [6] was 2 in each case.
“LV4-2A2^1-122 (C-terminally truncated 2A2 protein of Ljungan virus 4) (domain or fragment)”: the stoichiometry N in assay [7] and in assay [8] was 2 each time.
Turning to “SEBV1-2A2 (2A2 protein of Sebokele virus 1) (natural protein)”, the stoichiometry N in assay [9], in [10] and in assay [11] was 2 throughout.
